Measured values reported in publication PMC9482650, “Quantitative fragmentomics allow affinity mapping of interactomes” (Nature Communications, 2022).

T1: APBA2_2, Q99767
T1 sequence (Q99767 654-744, limits assumed, looked up): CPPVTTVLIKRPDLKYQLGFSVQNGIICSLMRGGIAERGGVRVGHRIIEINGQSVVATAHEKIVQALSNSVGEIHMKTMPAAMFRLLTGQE

T2: ARHGAP21, Q5T5U3
T2 sequence (Q5T5U3 45-169, limits assumed, looked up): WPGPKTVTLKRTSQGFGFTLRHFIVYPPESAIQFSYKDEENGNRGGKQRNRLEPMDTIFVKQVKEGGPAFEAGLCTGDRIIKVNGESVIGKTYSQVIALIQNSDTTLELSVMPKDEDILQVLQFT

T3: DFNB31_3, Q9P202
T3 sequence (Q9P202 811-907, limits assumed, looked up): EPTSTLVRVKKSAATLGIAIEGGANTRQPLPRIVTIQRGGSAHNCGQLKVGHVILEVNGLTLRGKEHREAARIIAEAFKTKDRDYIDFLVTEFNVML

T4: LIN7B, Q9HAP6
T4 sequence (Q9HAP6 88-185, limits assumed, looked up): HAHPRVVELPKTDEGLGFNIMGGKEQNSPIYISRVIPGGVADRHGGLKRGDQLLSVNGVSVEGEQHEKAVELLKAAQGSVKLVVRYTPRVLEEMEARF

T5: MPP2, Q14168
T5 sequence (Q14168 180-250, limits assumed, looked up): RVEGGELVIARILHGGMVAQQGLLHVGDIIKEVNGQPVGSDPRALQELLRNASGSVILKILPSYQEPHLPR

T6: NHERF3_1, Q5T2W1
T6 sequence (Q5T2W1 4-100, limits assumed, looked up): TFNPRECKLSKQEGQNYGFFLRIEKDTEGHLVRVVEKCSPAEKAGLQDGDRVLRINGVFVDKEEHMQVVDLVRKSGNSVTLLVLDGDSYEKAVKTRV

T7: NHERF3_3, Q5T2W1
T7 sequence (Q5T2W1 238-333, limits assumed, looked up): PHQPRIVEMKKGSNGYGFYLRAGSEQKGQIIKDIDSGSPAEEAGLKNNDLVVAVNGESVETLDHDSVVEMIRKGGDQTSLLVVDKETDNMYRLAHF

T8: RADIL, Q96JH8
T8 sequence (Q96JH8 971-1071, limits assumed, looked up): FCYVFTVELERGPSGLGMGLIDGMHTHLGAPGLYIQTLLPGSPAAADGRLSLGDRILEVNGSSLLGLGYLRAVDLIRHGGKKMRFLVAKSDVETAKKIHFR

T9: RHPN1, Q8TCX5
T9 sequence (Q8TCX5 508-602, limits assumed, looked up): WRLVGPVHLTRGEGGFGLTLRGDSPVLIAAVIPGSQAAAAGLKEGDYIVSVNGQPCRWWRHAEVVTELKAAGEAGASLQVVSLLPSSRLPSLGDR

T10: TIAM2, Q8IVF5
T10 sequence (Q8IVF5 885-986, limits assumed, looked up): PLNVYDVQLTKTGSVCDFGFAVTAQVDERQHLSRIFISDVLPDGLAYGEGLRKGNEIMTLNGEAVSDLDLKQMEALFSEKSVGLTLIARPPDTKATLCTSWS


What was measured:
Assay in all cases: holdup assay
Set-up in all cases: key: below the threshold = too weak to quantify, mostly under pKd 3.1 to 4
Conditions in all cases: plain residues with an end cap or a label only (N-terminal biotin on a linker: ttds)
APBA2_2, Q99767 = biological target: T1, APBA2_2, Q99767
ARHGAP21, Q5T5U3 = biological target: T2, ARHGAP21, Q5T5U3
ARHGEF12, Q9NZN5-2 = biological target: ARHGEF12, Q9NZN5-2
ARHGEF12, Q9NZN5-2, sequence (Q9NZN5 other isoform, or with tags, fused parts or gaps): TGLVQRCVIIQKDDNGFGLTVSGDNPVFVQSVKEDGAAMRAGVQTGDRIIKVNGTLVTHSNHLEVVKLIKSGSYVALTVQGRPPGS

DFNB31_3, Q9P202 = biological target: T3, DFNB31_3, Q9P202
DLG1_1, Q12959 = biological target: DLG1_1, Q12959
DLG1_2, Q12959 = biological target: DLG1_2, Q12959
DLG2_2, Q15700 = biological target: DLG2_2, Q15700
DLG2_2, Q15700, sequence (Q15700 189-283): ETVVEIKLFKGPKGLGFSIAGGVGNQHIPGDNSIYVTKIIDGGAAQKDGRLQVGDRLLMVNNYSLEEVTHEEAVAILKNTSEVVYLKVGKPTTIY

DLG5_1, Q8TDM6 = biological target: DLG5_1, Q8TDM6
DLG5_1, Q8TDM6, sequence (Q8TDM6 617-713): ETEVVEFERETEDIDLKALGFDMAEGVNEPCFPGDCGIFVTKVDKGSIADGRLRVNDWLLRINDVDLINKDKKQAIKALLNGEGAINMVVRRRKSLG

GIPC2, Q8TF65 = biological target: GIPC2, Q8TF65
GIPC2, Q8TF65, sequence (Q8TF65 112-203): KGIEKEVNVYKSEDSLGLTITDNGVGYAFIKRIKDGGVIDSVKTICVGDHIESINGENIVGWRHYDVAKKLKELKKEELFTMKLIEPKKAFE

GRASP, Q7Z6J2 = biological target: GRASP, Q7Z6J2
GRASP, Q7Z6J2, sequence (Q7Z6J2 96-193): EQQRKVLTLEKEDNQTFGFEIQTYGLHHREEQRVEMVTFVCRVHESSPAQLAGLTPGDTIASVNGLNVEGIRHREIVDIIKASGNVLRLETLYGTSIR

GRID2IP_1, A4D2P6 = biological target: GRID2IP_1, A4D2P6
GRID2IP_1, A4D2P6, sequence (A4D2P6 1-87): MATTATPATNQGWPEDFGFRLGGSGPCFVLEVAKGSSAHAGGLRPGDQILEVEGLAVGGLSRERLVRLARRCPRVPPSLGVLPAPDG

Inadl_10, Q8NI35 = biological target: Inadl_10, Q8NI35
Inadl_10, Q8NI35, sequence (Q8NI35 1673-1763): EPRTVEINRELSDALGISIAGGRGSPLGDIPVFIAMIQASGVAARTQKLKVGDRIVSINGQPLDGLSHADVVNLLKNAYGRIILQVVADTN

Inadl_2, Q8NI35 = biological target: Inadl_2, Q8NI35
Inadl_2, Q8NI35, sequence (Q8NI35 238-335): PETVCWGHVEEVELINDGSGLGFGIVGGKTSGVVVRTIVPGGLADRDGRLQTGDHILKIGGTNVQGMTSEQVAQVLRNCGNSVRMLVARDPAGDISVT

Inadl_6, Q8NI35 = biological target: Inadl_6, Q8NI35
Inadl_6, Q8NI35, sequence (Q8NI35 1058-1167): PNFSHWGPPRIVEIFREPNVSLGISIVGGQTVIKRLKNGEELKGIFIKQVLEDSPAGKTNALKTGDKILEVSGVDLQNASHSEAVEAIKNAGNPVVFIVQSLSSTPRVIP

Inadl_8, Q8NI35 = biological target: Inadl_8, Q8NI35
Inadl_8, Q8NI35, sequence (Q8NI35 1425-1530): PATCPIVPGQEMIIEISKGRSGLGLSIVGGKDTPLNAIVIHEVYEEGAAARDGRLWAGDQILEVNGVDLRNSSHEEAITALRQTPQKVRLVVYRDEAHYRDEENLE

LDB3, O75112 = biological target: LDB3, O75112
LDB3, O75112, sequence (O75112 1-94): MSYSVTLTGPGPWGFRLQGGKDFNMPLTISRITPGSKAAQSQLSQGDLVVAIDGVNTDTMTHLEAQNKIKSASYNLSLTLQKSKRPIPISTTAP

LIN7B, Q9HAP6 = biological target: T4, LIN7B, Q9HAP6
MAGI2_2, Q86UL8 = biological target: MAGI2_2, Q86UL8
MAGI2_2, Q86UL8, sequence (Q86UL8 410-522): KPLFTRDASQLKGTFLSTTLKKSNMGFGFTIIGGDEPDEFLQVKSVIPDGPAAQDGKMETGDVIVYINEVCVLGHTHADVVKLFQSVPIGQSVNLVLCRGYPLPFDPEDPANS

MPP2, Q14168 = biological target: T5, MPP2, Q14168
NHERF3_1, Q5T2W1 = biological target: T6, NHERF3_1, Q5T2W1
NHERF3_3, Q5T2W1 = biological target: T7, NHERF3_3, Q5T2W1
NHERF4_1, Q86UT5-2 = biological target: NHERF4_1, Q86UT5-2
NHERF4_1, Q86UT5-2, sequence (Q86UT5 other isoform, or with tags, fused parts or gaps): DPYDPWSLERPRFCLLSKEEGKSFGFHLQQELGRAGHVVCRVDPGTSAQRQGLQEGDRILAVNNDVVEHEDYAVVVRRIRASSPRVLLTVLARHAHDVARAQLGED

PDLIM1, O00151 = biological target: PDLIM1, O00151
PDLIM1, O00151, sequence (O00151 1-87): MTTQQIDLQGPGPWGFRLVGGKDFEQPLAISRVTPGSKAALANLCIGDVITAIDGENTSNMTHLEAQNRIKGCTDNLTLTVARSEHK

PDZRN4_1, Q6ZMN7 = biological target: PDZRN4_1, Q6ZMN7
PDZRN4_1, Q6ZMN7, sequence (Q6ZMN7 213-318): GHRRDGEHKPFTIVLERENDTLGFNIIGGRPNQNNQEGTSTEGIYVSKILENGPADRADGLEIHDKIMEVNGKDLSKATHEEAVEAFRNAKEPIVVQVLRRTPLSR

RADIL, Q96JH8 = biological target: T8, RADIL, Q96JH8
RHPN1, Q8TCX5 = biological target: T9, RHPN1, Q8TCX5
TIAM2, Q8IVF5 = biological target: T10, TIAM2, Q8IVF5

Binder	pKd (APBA2_2, Q99767)	pKd (ARHGAP21, Q5T5U3)	pKd (ARHGEF12, Q9NZN5-2)	pKd (DFNB31_3, Q9P202)	pKd (DLG1_1, Q12959)	pKd (DLG1_2, Q12959)	pKd (DLG2_2, Q15700)	pKd (DLG5_1, Q8TDM6)	pKd (GIPC2, Q8TF65)	pKd (GRASP, Q7Z6J2)	pKd (GRID2IP_1, A4D2P6)	pKd (Inadl_10, Q8NI35)	pKd (Inadl_2, Q8NI35)	pKd (Inadl_6, Q8NI35)	pKd (Inadl_8, Q8NI35)	pKd (LDB3, O75112)	pKd (LIN7B, Q9HAP6)	pKd (MAGI2_2, Q86UL8)	pKd (MPP2, Q14168)	pKd (NHERF3_1, Q5T2W1)	other results
QRQARSETLV [HPV59-E6, Q81964]	below the threshold	below the threshold	below the threshold	below the threshold	5.05	5.56	4.97	below the threshold	below the threshold	below the threshold	below the threshold	below the threshold	below the threshold	below the threshold	below the threshold	below the threshold	below the threshold	6.07	below the threshold	4.82	pKd (NHERF3_3, Q5T2W1): below the threshold; pKd (NHERF4_1, Q86UT5-2): below the threshold; pKd (PDLIM1, O00151): below the threshold; pKd (PDZRN4_1, Q6ZMN7): 4.04; pKd (RADIL, Q96JH8): 4.47; pKd (RHPN1, Q8TCX5): 3.94; pKd (TIAM2, Q8IVF5): below the threshold
SKPTRRETEV [HPV35-E6, P27228]	below the threshold	below the threshold	4.06	below the threshold	5.02	5.64	5.27	below the threshold	below the threshold	below the threshold	below the threshold	below the threshold	below the threshold	below the threshold	below the threshold	below the threshold	3.49	4.93	below the threshold	4.04	pKd (NHERF3_3, Q5T2W1): below the threshold; pKd (NHERF4_1, Q86UT5-2): below the threshold; pKd (PDLIM1, O00151): below the threshold; pKd (PDZRN4_1, Q6ZMN7): 4.38; pKd (RADIL, Q96JH8): below the threshold; pKd (RHPN1, Q8TCX5): below the threshold; pKd (TIAM2, Q8IVF5): below the threshold
